Data reported in patent US20220025060A1 (JIANGSU HENGRUI MEDICINE, published 2022).

Biological target: T1, His-tagged human CD40 (h-CD40-his) recombinant protein (human, UniProt P25942 21-193)
T1 construct: range 21-193; Commercial reagent from Acrobiosystems; also called human CD40-his; not shown: His tag
Assay: Biacore SPR
Text: According to the method described in the instruction available from Human Anti-capture Kit (Cat.# BR-1008-39, GE), human anti-capture antibody was covalently coupled to biosensing chip CM5 of the Biacore instrument (Biacore X100, GE), a certain amount of chimeric or humanized antibodies to be tested was affinity-captured, and then a series of concentration gradients of CD40 antigen (CD40 antigen purchased from Acrobiosystems) flowed through the surface of the chip. Biacore instrument (Biacore X100, GE) was used to detect the reaction signal in real-time, thus to obtain the association and dissociation curves. After each cycle of dissociation was completed, the biochip was washed and regenerated with a regeneration solution provided by the Human Anti-capture Kit. The amino coupling kit used in the test was purchased from GE (Cat. # BR-1000-50, GE), and HBS-EP+10× buffer solution (Cat. # BR-1006-69, GE) was diluted to 1×(pH 7.4) with double distilled water.
The data obtained from the test was fitted against a (1:1) Binding model using BiacoreX100 evaluation software2.0 GE, and the affinity value was obtained, as shown in Table 10 and Table 11.

T1 sequence (P25942 21-193 limits assumed): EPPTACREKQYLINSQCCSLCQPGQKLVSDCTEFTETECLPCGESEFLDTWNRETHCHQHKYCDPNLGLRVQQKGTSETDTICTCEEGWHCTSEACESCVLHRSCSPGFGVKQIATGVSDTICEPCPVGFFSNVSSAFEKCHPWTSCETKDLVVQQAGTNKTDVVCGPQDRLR

B1: humanized antibody hu9E5 (H1c heavy chain, L1a light chain) (antibody, human IgG1, kappa, V domains shown)
VH: QVQLVQSGAEVKKPGASVKVSCKASGYILTTYWITWVRQAPGQGLEWMGDIHPGSGSTKYNEKFKSRVTLTVDTSISTAYMELSRLRSEDTAVYYCARRDYWGQGTTVTVSS
VL: DIVMTQSPLSLPVTPGEPASISCRSSQNIVNSQGNTYLEWYLQKPGQSPQLLIYKVTNRFSGVPDRFSGSGSGTDFTLKISRVEAEDVGVYYCFQASLVPWTFGGGTKVEIKR
notes: also called Hu9E5-25
B1 was tested, and the “fold affinity against the Alligator control” value was no less than 10 times and the “fold affinity against the Pfizer Control” value was no less than 4 times.
